Measured values published in publication PMC10681803, “Dynamic ParB–DNA interactions initiate and maintain a partition condensate for bacterial chromosome segregation” (Nucleic Acids Research, 2023).
Positions count from the first letter of the chain named. Numbers in names are those of the source.

What was measured:
[1] = target: the molecule itself; assay: single-molecule fluorescence DNA-stretching assay (HiLo/TIRF microscopy); 42 kb DNA with a single parS tethered at both ends, SxG stain; 0.3 nM ParB^TMR in imaging buffer (40 mM Tris-HCl, 65 mM KCl, 2.5 mM MgCl2, 1 mM CTP); both ParB dimers loaded on the DNA
[2] = target: the molecule itself; assay: cross-linking; BMOE cysteine cross-linking of ParB^T22C [2 uM] with ~200 bp DNA with parS [2 uM] and 1 mM CTP, room temperature, quenched with DTT, 12% SDS-PAGE
[3] = target: the molecule itself; assay: cross-linking; BMOE (1 mM) cysteine cross-linking of ParB^S278C at 10 uM in storage buffer (50 mM Tris-HCl pH 7.5, 300 mM NaCl) without DNA, quenched with DTT, 12% SDS-PAGE

B1: TMR-labelled Bacillus subtilis ParB L5C (natural protein, UniProt P26497 1-282, looked up)
chain: MAKGCGKGINALFNQVDLSEETVEEIKIADLRPNPYQPRKHFDDEALAELKESVLQHGILQPLIVRKSLKGYDIVAGERRFRAAKLAGLDTVPAIVRELSEALMREIALLENLQREDLSPLEEAQAYDSLLKHLDLTQEQLAKRLGKSRPHIANHLRLLTLPENIQQLIAEGTLSMGHGRTLLGLKNKNKLEPLVQKVIAEQLNVRQLEQLIQQLNQNVPRETKKKEPVKDAVLKERESYLQNYFGTTVNIKRQKKKGKIEIEFFSNEDLDRILELLSERES
modifications: TMR-maleimide label on the ParB^L5C variant (labelling efficiency 70% of monomers)
notes: ParB (Spo0J) of Bacillus subtilis with L5C, expressed untagged; Untagged; also called ParB^TMR; source: E. coli BL21-Gold (DE3), purified (ammonium sulfate, Heparin, HiTrap SP, Superdex 200), labelled with TMR-maleimide
binding result [1]: binds

B2: Bacillus subtilis ParB T22C (natural protein, UniProt P26497 1-282, looked up)
chain: B1 chain with C5L, T22C
notes: ParB (Spo0J) of Bacillus subtilis with T22C, expressed untagged; Untagged; C22 of the two chains is cross-linked by BMOE in the N-terminally closed clamp; source: E. coli BL21-Gold (DE3), purified
binding result [2]: binds

B3: Bacillus subtilis ParB S278C (natural protein, UniProt P26497 1-282, looked up)
chain: B1 chain with C5L, S278C
notes: ParB (Spo0J) of Bacillus subtilis with S278C, expressed untagged; Untagged; C278 of the two chains is cross-linked by BMOE at the C-terminus; source: E. coli BL21-Gold (DE3), purified
binding result [3]: binds
